Test [1] has as its target T1, recombinant human CD96v2 (human, UniProt P40200-2 22-503, limits assumed, biotinylated (site not stated)).
T1 construct: Soluble recombinant protein used in MSD-SET; also called Biotinylated human CD96 protein
T1 sequence (looked up): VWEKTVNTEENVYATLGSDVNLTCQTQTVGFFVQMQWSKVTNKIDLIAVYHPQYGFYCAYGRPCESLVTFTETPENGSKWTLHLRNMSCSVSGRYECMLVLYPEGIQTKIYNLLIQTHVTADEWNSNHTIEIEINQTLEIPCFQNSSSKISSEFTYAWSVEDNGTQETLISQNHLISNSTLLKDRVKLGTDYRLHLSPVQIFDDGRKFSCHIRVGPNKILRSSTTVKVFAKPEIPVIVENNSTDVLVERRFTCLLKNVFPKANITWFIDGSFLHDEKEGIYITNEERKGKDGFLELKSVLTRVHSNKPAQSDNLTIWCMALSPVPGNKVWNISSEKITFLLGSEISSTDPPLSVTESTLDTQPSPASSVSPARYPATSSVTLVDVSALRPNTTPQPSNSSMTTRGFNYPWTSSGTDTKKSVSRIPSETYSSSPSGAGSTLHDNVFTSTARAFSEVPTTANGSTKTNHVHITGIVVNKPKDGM
Kind of test: MSD solution equilibrium titration (MSD-SET), 25 C.

Test [2] deals with T1, recombinant human CD96v2. Nature of the test: MSD-SET solution equilibrium titration, antibody titrated against constant biotinylated CD96, free antigen detected.
Test [3] concerns the target T2, cynomolgus monkey CD96v2 expressed on cells (CHO cells; transiently transfected HEK cells) (cynomolgus monkey, UniProt A0A2K5TWV6 22-569).
T2 construct: the cell is named under assay; also called CHO-cyCD96; Cyno CD96v2
T2 sequence: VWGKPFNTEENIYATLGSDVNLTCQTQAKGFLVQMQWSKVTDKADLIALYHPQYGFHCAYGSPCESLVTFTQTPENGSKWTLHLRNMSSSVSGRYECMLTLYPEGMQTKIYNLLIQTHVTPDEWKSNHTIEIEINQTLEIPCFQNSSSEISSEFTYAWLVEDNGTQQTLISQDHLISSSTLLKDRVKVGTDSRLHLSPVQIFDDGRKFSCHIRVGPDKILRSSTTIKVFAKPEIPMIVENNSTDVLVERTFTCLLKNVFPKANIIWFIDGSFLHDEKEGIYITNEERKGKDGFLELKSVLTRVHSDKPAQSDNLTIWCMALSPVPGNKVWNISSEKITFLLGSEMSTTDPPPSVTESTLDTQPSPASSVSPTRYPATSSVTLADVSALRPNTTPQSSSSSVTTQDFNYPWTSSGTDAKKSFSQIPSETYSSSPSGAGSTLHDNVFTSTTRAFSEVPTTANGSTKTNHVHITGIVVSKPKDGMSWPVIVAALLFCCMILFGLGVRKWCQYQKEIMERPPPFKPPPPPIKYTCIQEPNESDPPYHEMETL
Kind of test: flow cytometry on transiently transfected HEK cells (Cyno CD96v2). Background: Flow cytometry measures light scatter and fluorescence of single cells or particles in a stream.

Test [4] addresses T3, human complement component C1q (human, UniProt P02745 23-245; P02746 28-253; P02747 29-245).
T3 construct: the three subunits are from general knowledge
Nature of the test: SPR.

In another test the target is T4, recombinant human TIGIT (human, UniProt Q495A1 22-141).
T4 sequence (looked up): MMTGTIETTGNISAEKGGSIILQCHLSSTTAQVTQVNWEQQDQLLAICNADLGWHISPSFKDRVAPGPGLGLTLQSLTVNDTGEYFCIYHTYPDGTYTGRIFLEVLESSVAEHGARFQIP
Nature of the test: surface plasmon resonance (SPR). Background: SPR reads the build-up and loss of mass on a sensor chip optically.

Test [5] deals with T5, recombinant human nectin-1 (human, UniProt Q15223 31-334, limits assumed).
T5 sequence (looked up): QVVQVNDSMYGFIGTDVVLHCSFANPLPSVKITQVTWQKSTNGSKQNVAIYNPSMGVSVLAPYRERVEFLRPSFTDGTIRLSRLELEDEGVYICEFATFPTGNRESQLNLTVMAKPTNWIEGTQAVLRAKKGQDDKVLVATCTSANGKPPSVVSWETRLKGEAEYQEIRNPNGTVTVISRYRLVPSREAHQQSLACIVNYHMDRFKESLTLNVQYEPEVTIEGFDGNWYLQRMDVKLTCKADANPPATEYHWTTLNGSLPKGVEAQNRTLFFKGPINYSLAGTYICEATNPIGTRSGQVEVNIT
Kind of test: surface plasmon resonance (SPR).

A further test concerns the target T6, recombinant human CD226 (human, UniProt Q15762 19-247, limits assumed).
T6 sequence (looked up): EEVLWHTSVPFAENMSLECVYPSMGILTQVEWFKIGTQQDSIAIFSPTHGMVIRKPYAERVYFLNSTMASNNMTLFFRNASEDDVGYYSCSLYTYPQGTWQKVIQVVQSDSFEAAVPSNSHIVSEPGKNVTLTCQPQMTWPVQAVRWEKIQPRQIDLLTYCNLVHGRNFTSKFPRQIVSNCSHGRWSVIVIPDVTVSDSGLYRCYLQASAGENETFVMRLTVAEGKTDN
Kind of test: surface plasmon resonance (SPR).

For a further test, the target named is T7, recombinant human CD155 (human, UniProt P15151 21-343).
T7 sequence: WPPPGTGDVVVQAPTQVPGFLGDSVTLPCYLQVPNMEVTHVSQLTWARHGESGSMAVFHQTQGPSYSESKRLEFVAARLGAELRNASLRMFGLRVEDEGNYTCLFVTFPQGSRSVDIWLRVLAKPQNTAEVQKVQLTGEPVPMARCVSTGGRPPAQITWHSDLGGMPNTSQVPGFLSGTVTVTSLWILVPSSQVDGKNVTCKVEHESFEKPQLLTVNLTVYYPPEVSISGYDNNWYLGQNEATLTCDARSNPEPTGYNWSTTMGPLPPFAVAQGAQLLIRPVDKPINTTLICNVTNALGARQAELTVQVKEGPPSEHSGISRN
Kind of test: surface plasmon resonance (SPR).

Test [6] concerns the target T8, cynomolgus monkey CD96, native, on primary cynomolgus monkey T cells (cynomolgus monkey, UniProt A0A2K5TWV6 22-569).
T8 construct: whole, on cells
T8 sequence: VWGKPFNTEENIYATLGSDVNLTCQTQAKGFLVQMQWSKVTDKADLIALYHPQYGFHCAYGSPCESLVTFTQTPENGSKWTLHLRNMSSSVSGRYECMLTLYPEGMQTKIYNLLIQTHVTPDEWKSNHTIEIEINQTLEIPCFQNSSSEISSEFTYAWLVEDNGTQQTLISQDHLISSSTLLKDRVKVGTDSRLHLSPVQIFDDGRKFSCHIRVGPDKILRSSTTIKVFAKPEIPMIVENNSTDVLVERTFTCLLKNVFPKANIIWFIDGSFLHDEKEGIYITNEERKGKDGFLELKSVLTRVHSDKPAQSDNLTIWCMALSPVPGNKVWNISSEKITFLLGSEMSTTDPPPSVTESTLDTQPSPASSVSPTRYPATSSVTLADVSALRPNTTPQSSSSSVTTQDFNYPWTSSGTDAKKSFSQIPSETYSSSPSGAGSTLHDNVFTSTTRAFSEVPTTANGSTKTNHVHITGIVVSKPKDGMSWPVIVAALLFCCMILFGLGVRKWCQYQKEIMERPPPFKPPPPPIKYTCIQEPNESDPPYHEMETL
Nature of the test: flow cytometry on activated cynomolgus monkey T cells, pooled donor.

T3 sequence (P02745 23-245 limits assumed, chain 1 of 3): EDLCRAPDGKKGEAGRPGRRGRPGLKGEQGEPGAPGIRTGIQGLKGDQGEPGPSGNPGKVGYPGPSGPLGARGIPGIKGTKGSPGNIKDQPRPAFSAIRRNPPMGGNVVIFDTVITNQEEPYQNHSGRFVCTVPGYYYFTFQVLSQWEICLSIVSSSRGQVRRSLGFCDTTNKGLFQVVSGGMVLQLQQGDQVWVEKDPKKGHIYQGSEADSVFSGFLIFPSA
T3 sequence (P02746 28-253 limits assumed, chain 2 of 3): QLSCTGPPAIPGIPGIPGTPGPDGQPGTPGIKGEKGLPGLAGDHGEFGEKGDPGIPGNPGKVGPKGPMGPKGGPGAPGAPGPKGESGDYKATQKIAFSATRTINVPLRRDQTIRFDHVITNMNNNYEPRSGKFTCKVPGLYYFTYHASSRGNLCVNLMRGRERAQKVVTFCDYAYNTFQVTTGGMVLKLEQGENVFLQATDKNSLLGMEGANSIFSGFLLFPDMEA
T3 sequence (P02747 29-245 limits assumed, chain 3 of 3): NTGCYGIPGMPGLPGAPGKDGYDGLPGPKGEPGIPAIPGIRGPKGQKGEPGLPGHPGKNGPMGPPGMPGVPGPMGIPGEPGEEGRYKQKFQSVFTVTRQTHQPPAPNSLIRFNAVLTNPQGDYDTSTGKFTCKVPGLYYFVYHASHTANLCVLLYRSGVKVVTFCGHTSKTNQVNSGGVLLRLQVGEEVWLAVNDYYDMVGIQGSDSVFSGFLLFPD

B1: 42Y073-86F08-66 (antibody)
heavy: not shown
light: DIQLTQSPSSLSASVGDRVTITCRASQSISSYLNWYQQKPGKAPKLLIYAASSLQSGVPSRFSGSGSGTDFTLTISSLQPEDFATYYCQQVLHTITFGGGTKVEIKRTVAAPSVFIFPPSDEQLKSGTASVVCLLNNFYPREAKVQWKVDNALQSGNSQESVTEQDSKDSTYSLSSTLTLSKADYEKHKVYACEVTHQGLSSPVTKSFNRGEC
notes: also called GSK 6097608; GSK6097608
Usually Kd stands for the constant that tells how readily two partners part at equilibrium. One may read the EC50 (read off the curve) as the concentration giving half of the maximal effect. In the case of B1, the Kd in the test with recombinant human CD96v2 [1] turned out to be 0.02 nM; in test [4], 94.4 nM. In the test with recombinant human CD96v2 [2], the “IC50 (read off the curve)” value is roughly 0.06 nM. Moreover, the “EC50 (read off the curve)” value was roughly 6 nM in test [3] and roughly 0.05 nM in [6]. The binding result (in the test with recombinant human TIGIT; in [5]; with recombinant human CD226; in the test with recombinant human CD155) was “no binding” throughout.

These data come from patent US12528864 (GlaxoSmithKline, dated 2026).
